The record followed here is the supplement of paper PMC10567573.

The series in a line: protein stability index of a GFP-peptide fusion (GPS, HEK-293T) (PSI 1-6); higher = more stable. The conditions noted are these: c terminus: a fixed tail appended.

± gives the standard deviation.
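Also: 24-mer peptide tiles fused after GFP, lentivirally expressed, FACS-sorted into six equal bins by GFP/DsRed ratio, decoded by Illumina sequencing, PSI is the read-weighted mean bin number.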

Turning to LQNFLLHGTKNVTNSSSLRLPRQN [WSB1], the protein stability index runs as follows: (treatment: DMSO) 2.89 ± 0.16; (treatment: MLN4924 1 uM, 8 h) 3 ± 0.23.
Turning to RGTQYSSLDSLDGLSLTDESDSCV [PSD2], the protein stability index runs as follows: (treatment: DMSO) 5.26 ± 0.22; (treatment: MLN4924 1 uM, 8 h) 5.3 ± 0.14.
The like results for PRYITDVIDAEPFIRCSLQCRDLV [KLHL12] were, in that order, 2.25 ± 0.57 and 2.26 ± 0.66.
In the same order, the values of EAAEAETAKDNGEAEDQEEKEDAE [SRPK2] are 5.55 ± 0.4 and 5.73 ± 0.29.
Take LEEEIERNKESPVFAPVYFPEELH [HMOX1]: the protein stability index is, setting by setting: (treatment: DMSO) 5.32 ± 0.43; (treatment: MLN4924 1 uM, 8 h) 5.09 ± 0.57.
Regarding RLCGGKGGFGSMLRALGAQIEKTT [SDE2], the protein stability index by setting is: (treatment: DMSO) 2.59 ± 0.23; (treatment: MLN4924 1 uM, 8 h) 2.55 ± 0.45.
In the same order, the values of VQPMDRLPYQHFSAHFTSGPLVPR [TBX5] are 2.88 ± 0.27 and 2.88 ± 0.33.
In the case of LLDADWSINAGSWMWLSCSSFFQQ [CRY1], the protein stability index runs as follows: (treatment: DMSO) 2.67 ± 1.1; (treatment: MLN4924 1 uM, 8 h) 2.57 ± 0.22.
In the case of EAEREFILNLKKKECKDRGFEYDG [NLN], the protein stability index (treatment: DMSO) came out at 4.58 ± 0.41 and the protein stability index (treatment: MLN4924 1 uM, 8 h) is 4.91 ± 0.32.
As for ELPNGSVKEAPAPTPTSLEVSSPP [PDZK1], the protein stability index was found to be 5.04 ± 0.12 (treatment: DMSO) and 5.09 ± 0.17 (treatment: MLN4924 1 uM, 8 h).
With GRLGKQCRERWHNHLNPEVKKSCW [MYBL2], the protein stability index reads like this: (treatment: DMSO) 2.42 ± 0.17; (treatment: MLN4924 1 uM, 8 h) 2.99 ± 0.41.
In the case of STVISSMPCLLMELRRDSSESQLA [C18orf25], the protein stability index is 3.02 ± 0.13 (treatment: DMSO) and 3.13 ± 0.33 (treatment: MLN4924 1 uM, 8 h).
Consider LPVRPQTNALIGGPMPMSMPNVMT [CLINT1], for which the protein stability index reads like this: (treatment: DMSO) 3.33 ± 0.11; (treatment: MLN4924 1 uM, 8 h) 3.38 ± 0.18.
Regarding EAGIKVHDVRLNGSAAGHVLVKDN [TENT5C], the protein stability index is, setting by setting: (treatment: DMSO) 4.42 ± 0.17; (treatment: MLN4924 1 uM, 8 h) 4.61 ± 0.15.
Consider LEDAAGGDSASEEKSGSAEPFVLP [FBXO34], for which the protein stability index was 5.46 ± 0.37 (treatment: DMSO) and 5.34 ± 0.33 (treatment: MLN4924 1 uM, 8 h).
Sequence VCSVRGGEGRSRGSANDYKDTLGK [KRT71] yielded a protein stability index (treatment: DMSO) of 4.68 ± 0.32 and a protein stability index (treatment: MLN4924 1 uM, 8 h) of 4.79 ± 0.18.
As to EPSNKTIHAELSKLVKKHAAQRST [FKBP8], the protein stability index is, setting by setting: (treatment: DMSO) 4.49 ± 0.21; (treatment: MLN4924 1 uM, 8 h) 4.47 ± 0.3.
As for LYPEGIGARQQQVTTYLHKDYNNL [POMT2], the protein stability index came to 3.25 ± 0.15 (treatment: DMSO) and 3.35 ± 0.26 (treatment: MLN4924 1 uM, 8 h).
Take DGLDLDWEYPGSQGSPAVDKERFT [CHIT1]: the protein stability index was 4.94 ± 0.21 (treatment: DMSO) and 5.04 ± 0.19 (treatment: MLN4924 1 uM, 8 h).
Turning to RQRLLADLLHNVSQNIAAETRAED [DFFB], the protein stability index runs as follows: (treatment: DMSO) 4.1 ± 0.36; (treatment: MLN4924 1 uM, 8 h) 4.09 ± 0.44.
In the case of YAGNLHESGVHGALLALDENFDHN [PPFIA4], the protein stability index is, setting by setting: (treatment: DMSO) 3.26 ± 0.51; (treatment: MLN4924 1 uM, 8 h) 3.7 ± 0.73.
For AAQEGEDEGASAGQGPKPEADSQE [GAGE1], the protein stability index is, setting by setting: (treatment: DMSO) 5.67 ± 0.17; (treatment: MLN4924 1 uM, 8 h) 5.64 ± 0.24.
The sequence ARSESVLLHMPQPVNPELTAGPIT [TRIM43] gave a protein stability index (treatment: DMSO) of 4.31 ± 0.061 and a protein stability index (treatment: MLN4924 1 uM, 8 h) of 4.41 ± 0.078.
For the sequence DAVTAALLIPKEDGVITASEDRTI [WDFY1], the protein stability index is 4.7 ± 0.13 (treatment: DMSO) and 4.86 ± 0.27 (treatment: MLN4924 1 uM, 8 h).
The like results for LWKMKPRRNLEEDDYLHKDTGETS [STEAP1] were, in that order, 4.07 ± 0.3 and 4.08 ± 0.42.
Take RAALISRRHLQFWKSHLKKVQKPL [RHOBTB1]: the protein stability index came out at 2.22 ± 0.16 (treatment: DMSO) and 2.54 ± 0.34 (treatment: MLN4924 1 uM, 8 h).
On to NDYICPATNQCTIDKNRRKSCQAC [ESR2], for which the protein stability index is, setting by setting: (treatment: DMSO) 4.44 ± 0.21; (treatment: MLN4924 1 uM, 8 h) 4.83 ± 0.17.
Turning to VHRDLKPENLLLASKSKGAAVKLA [CAMK2D], the protein stability index (treatment: DMSO) came to 3.58 ± 0.77 and the protein stability index (treatment: MLN4924 1 uM, 8 h) stood at 3.42 ± 0.065.
As to PLSLYGQLLWREFFYTAATNNPRF [CRY1], the protein stability index by setting is: (treatment: DMSO) 2.79 ± 0.46; (treatment: MLN4924 1 uM, 8 h) 2.5 ± 0.72.
LLSFKRGSALEEKENKILVKETGY [TNFSF13B]: the protein stability index came out at 3.45 ± 0.38 (treatment: DMSO) and 3.31 ± 0.37 (treatment: MLN4924 1 uM, 8 h).
EIPWTSLTRKGLVRVVFFPLFSNW [PHTF1] showed a protein stability index (treatment: DMSO) of 3.09 ± 0.89 and a protein stability index (treatment: MLN4924 1 uM, 8 h) of 2.84 ± 0.23.
The like results for KLQVRLATKTEPKKLEKYLQKLSA [ELOA2] were, in that order, 2.31 ± 0.41 and 2.81 ± 0.42.
In the case of SLFSYGLRESIASYLSLTSEDNTS [SLA], the protein stability index worked out at 2.49 ± 0.19 (treatment: DMSO) and 2.61 ± 0.22 (treatment: MLN4924 1 uM, 8 h).
As for HQDLKYISPETMVALLTGKFSNIV [CDC25B], the protein stability index reads like this: (treatment: DMSO) 2.23 ± 0.41; (treatment: MLN4924 1 uM, 8 h) 2.55 ± 0.54.
In the same order, the values of AAFEEFDTDRDGYISHRELGDCMR [CABP4] are 4.25 ± 0.17 and 4.3 ± 0.36.
The like results for CHECGKKFSQNSHLIKHRRTHTGE [ZNF75A] were, in that order, 5.19 ± 0.29 and 4.72 ± 0.25.
In the same order, the values of AVSCVFLAFVIVLLAHRLRRWHKS [PCDHGA10] are 2.33 ± 0.36 and 1.92 ± 0.23.
Take LCGQAAGAASLPSELIVHIFSFLP [FBXO33]: the protein stability index stood at 2.54 ± 0.72 (treatment: DMSO) and 2.29 ± 0.18 (treatment: MLN4924 1 uM, 8 h).
The sequence KFSLLNAKREETKAMESQRAYRFV [SPOPL] came in with a protein stability index (treatment: DMSO) of 3.06 ± 0.42 and a protein stability index (treatment: MLN4924 1 uM, 8 h) of 3.13 ± 0.23.
Regarding VMLKRIHSLYRRTGASFQKAQQEF [SCAMP3], the protein stability index by setting is: (treatment: DMSO) 2.49 ± 0.35; (treatment: MLN4924 1 uM, 8 h) 2.68 ± 0.46.
For LEGYRDNAYKDLAWKHGNIHLSAP [PCMTD1], the protein stability index by setting is: (treatment: DMSO) 2.99 ± 0.35; (treatment: MLN4924 1 uM, 8 h) 2.94 ± 0.21.
Turning to LDSSHSPSSLSSSEGSSSSSSSSS [NFE2L1], the protein stability index runs as follows: (treatment: DMSO) 5.51 ± 0.17; (treatment: MLN4924 1 uM, 8 h) 5.46 ± 0.15.
As to GFTTATEFHQRRSEIIQITTGSKE [RAD51], the protein stability index turned out to be 4.22 ± 0.44 (treatment: DMSO) and 4.35 ± 0.47 (treatment: MLN4924 1 uM, 8 h).
As for RIQTQKEQAKENENGELQKIILPR [ZC2HC1C], the protein stability index (treatment: DMSO) came to 4.77 ± 0.21 and the protein stability index (treatment: MLN4924 1 uM, 8 h) is 4.51 ± 0.41.
With NNEAFMNQEITKAFHVRRTNRVKE [RHOBTB2], the protein stability index is, setting by setting: (treatment: DMSO) 4.44 ± 0.25; (treatment: MLN4924 1 uM, 8 h) 4.48 ± 0.21.
As to WKEGRPRVEESGSKKEGKRQGPKE [PBXIP1], the protein stability index runs as follows: (treatment: DMSO) 5.28 ± 0.46; (treatment: MLN4924 1 uM, 8 h) 5.24 ± 0.12.
Consider GLSLCQFQNFSLHDPLYGKLFSTY [LPCAT4], for which the protein stability index (treatment: DMSO) was 1.81 ± 0.56 and the protein stability index (treatment: MLN4924 1 uM, 8 h) stood at 2.06 ± 0.21.
Consider AWVANFERPRMNANSLLASPTGLS [CRY1], for which the protein stability index was determined as 2.64 ± 0.5 (treatment: DMSO) and 2.97 ± 0.37 (treatment: MLN4924 1 uM, 8 h).
In the same order, the values of ELDNPMQQKWTKPARAGSEVEWTE [C2CD2L] are 4.1 ± 0.36 and 4.25 ± 0.21.
TVKMLRTQRPAMVQTEDQYQFSYR [PTPRD] returned a protein stability index (treatment: DMSO) of 2.84 ± 0.37 and a protein stability index (treatment: MLN4924 1 uM, 8 h) of 2.97 ± 0.33.
The like results for TEFTRFLCSSPLEAETPPNGPDCG [ATE1] were, in that order, 4.66 ± 0.086 and 4.52 ± 0.17.
Consider TPVPTITANVTSVPVPPAAAPPPP [BRD3], for which the protein stability index runs as follows: (treatment: DMSO) 4.92 ± 0.17; (treatment: MLN4924 1 uM, 8 h) 5.04 ± 0.17.
